Assays:
[1] = target: T1, NiV-G-Fc, a fusion construct between the ectodomain of NiV-G and the Fc region of human IgG1 (Nipah virus, UniProt Q9IH62 71-602); assay: flow cytometry on cells; details: one partner purified
T1 sequence: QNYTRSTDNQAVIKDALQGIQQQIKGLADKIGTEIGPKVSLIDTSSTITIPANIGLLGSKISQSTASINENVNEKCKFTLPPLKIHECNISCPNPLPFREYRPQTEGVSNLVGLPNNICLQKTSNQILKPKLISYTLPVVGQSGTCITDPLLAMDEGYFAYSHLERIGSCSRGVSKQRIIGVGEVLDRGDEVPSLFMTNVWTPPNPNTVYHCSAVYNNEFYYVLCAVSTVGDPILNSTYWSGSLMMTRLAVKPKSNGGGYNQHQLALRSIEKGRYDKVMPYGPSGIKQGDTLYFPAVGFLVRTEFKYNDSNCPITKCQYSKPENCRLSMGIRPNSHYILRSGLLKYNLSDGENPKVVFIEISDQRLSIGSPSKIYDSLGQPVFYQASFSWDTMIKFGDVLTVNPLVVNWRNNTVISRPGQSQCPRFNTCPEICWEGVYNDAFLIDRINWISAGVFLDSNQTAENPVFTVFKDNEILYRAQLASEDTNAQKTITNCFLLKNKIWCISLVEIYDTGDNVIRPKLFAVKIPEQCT

[2] = target: T1, NiV-G-Fc, a fusion construct between …; assay: SPR; BIAcore 3000; […]; 1:1 Langmuir model; details: both partners purified
[3] = target: T2, EphB4-Fc (UniProt P54760 16-539); assay: SPR; unpublished data: BIAcore control, EphB4-Fc binding to ephrinB2-Fc; who was immobilised is not stated; details: both partners purified
T2 sequence (looked up): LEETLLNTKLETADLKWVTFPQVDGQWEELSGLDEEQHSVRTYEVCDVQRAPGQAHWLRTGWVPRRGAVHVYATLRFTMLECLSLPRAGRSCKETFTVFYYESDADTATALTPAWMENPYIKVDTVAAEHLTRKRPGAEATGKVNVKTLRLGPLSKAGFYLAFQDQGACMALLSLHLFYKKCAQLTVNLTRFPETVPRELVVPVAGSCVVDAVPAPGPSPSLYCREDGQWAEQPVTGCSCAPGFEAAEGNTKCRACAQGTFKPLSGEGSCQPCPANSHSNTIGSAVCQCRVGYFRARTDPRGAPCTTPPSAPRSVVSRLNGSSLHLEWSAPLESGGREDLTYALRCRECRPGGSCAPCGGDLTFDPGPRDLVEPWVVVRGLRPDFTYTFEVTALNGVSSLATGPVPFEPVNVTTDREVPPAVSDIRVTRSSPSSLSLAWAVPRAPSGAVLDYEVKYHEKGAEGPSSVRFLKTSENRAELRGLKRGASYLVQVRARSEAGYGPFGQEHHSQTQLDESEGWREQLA

B1: human ephrinB3 stably expressed on CHO-pgsA745 cells (CHO-B3) (natural protein, UniProt Q15768 28-340, looked up)
chain: LSLEPVYWNSANKRFQAEGGYVLYPQIGDRLDLLCPRARPPGPHSSPNYEFYKLYLVGGAQGRRCEAPPAPNLLLTCDRPDLDLRFTIKFQEYSPNLWGHEFRSHHDYYIIATSDGTREGLESLQGGVCLTRGMKVLLRVGQSPRGGAVPRKPVSEMPMERDRGAAHSLEPGKENLPGDPTSNATSRGAEGPLPPPSMPAVAGAAGGLALLLLGVAGAGGAMCWRRRRAKPSESRHPGPGSFGRGGSLGLGGGGGMGPREAEPGELGIALRGGGAADPPFCPHYEKVSGDYGHPVYIVQDGPPQSPPNIYYKV
notes: also called cell surface ephrinB3
Kd [1]: 580 pM

B2: ephrinB3-Fc (soluble Fc-fusion ephrin protein, purchased) (Fc fusion)
chain: LSLEPVYWNSANKRFQAEGGYVLYPQIGDRLDLLCPRARPPGPHSSPNYEFYKLYLVGGAQGRRCEAPPAPNLLLTCDRPDLDLRFTIKFQEYSPNLWGHEFRSHHDYYIIATSDGTREGLESLQGGVCLTRGMKVLLRVGQSPRGGAVPRKPVSEMPMERDRGAAHSLEPGKENLPGDPTSNATSRGAEGPLPPPSMP
notes: source: bought: R & D Systems
koff [2]: 0.00194 s⁻¹

B3: ephrinB2-Fc (soluble Fc-fusion ephrin protein, purchased) (Fc fusion)
chain: RSIVLEPIYWNSSNSKFLPGQGLVLYPQIGDKLDIICPKVDSKTVGQYEYYKVYMVDKDQADRCTIKKENTPLLNCARPDQDVKFTIKFQEFSPNLWGLEFQKNKDYYIISTSNGSLEGLDNQEGGVCQTRAMKILMKVGQDASSAGSARNHGPTRRPELEAGTNGRSSTTSPFVKPNPGSSTDGNSAGHSGNNLLGSEVA
koff [2]: 0.000106 s⁻¹

B4: ephrinB2-Fc (soluble Fc-fusion ephrin protein, purchased) (Fc fusion)
chain: RSIVLEPIYWNSSNSKFLPGQGLVLYPQIGDKLDIICPKVDSKTVGQYEYYKVYMVDKDQADRCTIKKENTPLLNCARPDQDVKFTIKFQEFSPNLWGLEFQKNKDYYIISTSNGSLEGLDNQEGGVCQTRAMKILMKVGQDASSAGSARNHGPTRRPELEAGTNGRSSTTSPFVKPNPGSSTDGNSAGHSGNNLLGSEVA
modifications: Ectodomain only. The human IgG1 Fc carrier, which makes the fusion a disulfide-linked dimer, is left out. Species is inferred: the R&D Systems ephrin-B2-Fc of that period was recalled as the mouse …
Kd [3]: 370 pM

Reference: paper PMC1361355 (PLoS Pathogens, 2006)
